Assays:
Experiment in all cases: ELISA
[1] = biological target: HA of A/Solomon Islands/03/2006 (H1N1) (influenza A virus (H1N1))
[2] = biological target: HA of A/Texas/36/1991 (H1N1) (influenza A virus (H1N1))
[3] = biological target: HA of A/Texas/50/2012 (H3N2) (influenza A virus (H3N2))

Measured: EC50 fold over wild-type rFluA-20

B1: rFluA-20 heavy chain mutant Y100aA (antibody, V domains shown)
VH: QVQLQESGPGLVKPSETLSLTCSVSGVSVTSDIYYWTWIRQPPGKGLEWIGYIFYNGDTNYNPSLKSRVTMSIDTSKNEFSLRLTSVTAADTAVYFCARGTEDLGACSSGSCPNHWGQGTLVTVSS
VL: DIQMTQSPSSLSASIGDRVTITCRPSQNIRSFLNWFQHKPGKAPKLLIYAASNLQSGVPSRFSGSGSGTEFTLTIRSLQPEDFATYYCQQSYNTPPTFGQGTKVEIK
> 100 fold: [1] | [2] | [3]

From patent US20210252150A1
